Here are results for one substance from publication PMC9245660 (Proceedings of the National Academy of Sciences of the …, 2022).

The target of this test is Tom22-T1′ (Tom22 without helix H1) (human) (UniProt Q9NS69). The test is described as follows: pull-down.

Turning to Su9-TEV-DHFR-EGFP-Strep, the decrease in the binding ability against Tom22 before cleavage is 75%.
